Assay results reported in publication PMC9189065 (Cell, 2022).
One block for each binder: values may come before it.

How the values were obtained:
mouse METAP1(1-59) = mouse METAP1(1-59) (mouse, UniProt Q8BP48 1-59); experiment: other fluorescence titration
mouse METAP1(1-79) = mouse METAP1(1-79) (mouse, UniProt Q8BP48 1-79); experiment: other fluorescence titration
[1] = target: zebrafish MBP-Metap1, full length (zebrafish, UniProt Q4QRK0 1-386); experiment: pull-down

Kd (mouse METAP1(1-59)): ~100 nM
stoichiometry N (mouse METAP1(1-59)): 1
Kd (mouse METAP1(1-79)): ~100 nM
stoichiometry N (mouse METAP1(1-79)): 1
Binder: Ac-EEDPAEEDCPELVPIETTQSE-NH2 [human ZNG1 N-terminal peptide, synthetic]

Kd (mouse METAP1(1-59)): ~100 nM
stoichiometry N (mouse METAP1(1-59)): 1
Kd (mouse METAP1(1-79)): ~100 nM
stoichiometry N (mouse METAP1(1-79)): 1
Binder: Ac-MEDEDECPELVPIKEKPSG-NH2 [zebrafish Zng1 N-terminal peptide, synthetic]

binding result [1]: binds
B1: zebrafish Zng1, full length, purified (natural protein)
chain: not shown
